Conditions: Homo sapiens, pH 7, transition: 2, structure 1DXX; for ddG of mutation (higher = less stable) / unfolding free energy: Urea; for Tm / change of melting temperature, mutant - wild type (higher = more stable): Thermal
[1] = 25 °C, Fluorescence, PBS, reversible: yes
[2] = CD, sodium phosphate 0.1 M, NaCl 0.15 M, reversible: yes
[3] = Fluorescence, sodium phosphate 0.1 M, NaCl 0.15 M, reversible: yes

## Dystrophin, P11532 K18N
[1]
  ddG of mutation (higher = less stable): 3.7 kcal/mol
  unfolding free energy: 7.5 kcal/mol
CD, PBS, reversible: no
  Tm: 57.6 °C
  change of melting temperature, mutant - wild type (higher = more stable): -3.4 °C
[2]
  Tm: 57.6 °C
  change of melting temperature, mutant - wild type (higher = more stable): -3.4 °C
  ddG of mutation (higher = less stable): 3.7 kcal/mol
  unfolding free energy: 7.5 kcal/mol
[3]
  ddG of mutation (higher = less stable): 3.7 kcal/mol
  unfolding free energy: 7.5 kcal/mol
